These results are taken from patent US20200262867A1 (WNTRX PHARMACEUTICALS, published 2020).

Bridges are numbered along the chain shown (N, C = ends). Primed or numbered codes have the meaning given here. Where no end group is shown, it is not given here. [ ]: non-standard residue; d: D form. The star is where a group is joined. NMeQ′ = N-methylglutamine (N-alpha-methyl, stereo named both D and L in the filing); Phe(3,4-Cl2) = N[C@@H](Cc1ccc(Cl)c(Cl)c1)C(=O)O; PEG4″ = PEG4 (tetraethylene glycol) spacer; Phe(4-Cl) = N[C@@H](Cc1ccc(Cl)cc1)C(=O)O; Phe(4-F) = N[C@@H](Cc1ccc(F)cc1)C(=O)O; 2Nal = N[C@@H](Cc1ccc2ccccc2c1)C(=O)O; NMeCha = CN[C@@H](CC1CCCCC1)C(=O)O; Palmitoyl = CCCCCCCCCCCCCCCC(=O)*; hArg = N=C(N)NCCCC[C@H](N)C(=O)O; NMeQ = CN[C@@H](CCC(N)=O)C(=O)O; Cha = N[C@@H](CC1CCCCC1)C(=O)O; Cba = N[C@@H](CC1CCC1)C(=O)O; Tle = CC(C)(C)[C@H](N)C(=O)O; S5 = C=CCCC[C@](C)(N)C(=O)O; NMeC = CN[C@@H](CS)C(=O)O

To fix the notation:
B1: SEQ ID NO: 53 (peptide)
peptide: LQTLRDIQRML[2Nal]PD
B2: SEQ ID NO: 185 (peptide)
peptide: Ac-HRQRS[Cha][NMeQ]TLR[S5]IQR[S5][Cha][2Nal]-NH2
modifications: staple 11-15; also: N-MeGln at 7: D or L (both stated)
B3: SEQ ID NO: 211 (peptide)
peptide: {Palmitoyl-PEG4″}-HRQRS[Cha][NMeQ′]TLR[S5]IQR[S5][Cha][2Nal]-NH2
modifications: staple 11-15; not fully specified; printed as HRQRS(Cha)(N-methylQ)TLRXaa3IQRXaa6(Cha)(2-Nal)
B4: SEQ ID NO: 194 (peptide)
peptide: Ac-HR[NMeQ]RSLQTLR[S5]IQR[S5][Tle][2Nal]-NH2
modifications: staple 11-15; also: N-methylglutamine 3: D or L (filing names both)
B5: SEQ ID NO: 202 (peptide)
peptide: Ac-HR[NMeQ′]RSL[NMeQ′]TLR[S5]IQR[S5][Phe(4-F)][2Nal]-NH2
modifications: staple 11-15; not fully specified; printed as HR(N-methylQ)RSL(N-methylQ)TLRXIQRX(4-F-Ph)(2-Nal), X/X stapled, (S) α-methyl, N-terminal Ac, C-terminal NH2
B6: SEQ ID NO: 216 (peptide)
peptide: Ac-CRQRSLQTLR[S5]IQR[S5][Cha][2Nal]-NH2
modifications: staple 11-15
SMILES: CC[C@H](C)[C@@H]1NC(=O)[C@@](C)(NC(=O)[C@H](CCCNC(=N)N)NC(=O)[C@H](CC(C)C)NC(=O)[C@@H](NC(=O)[C@H](CCC(N)=O)NC(=O)[C@H](CC(C)C)NC(=O)[C@H](CO)NC(=O)[C@H](CCCNC(=N)N)NC(=O)[C@H](CCC(N)=O)NC(=O)[C@H](CCCNC(=N)N)NC(=O)[C@H](CS)NC(C)=O)[C@@H](C)O)CCCC=CCCC[C@@](C)(C(=O)N[C@@H](CC2CCCCC2)C(=O)N[C@@H](Cc2ccc3ccccc3c2)C(N)=O)NC(=O)[C@H](CCCNC(=N)N)NC(=O)[C@H](CCC(N)=O)NC1=O
B7: SEQ ID NO: 203 (peptide)
peptide: Ac-HR[NMeQ′]RSL[NMeQ′]TLR[S5]IQR[S5][Phe(3,4-Cl2)][2Nal]-NH2
modifications: staple 11-15; not fully specified; printed as HR(N-methylQ)RSL(N-methylQ)TLRXIQRX(3,4-diCl-Ph)(2-Nal), X/X stapled, (S) α-methyl, N-terminal Ac, C-terminal NH2
B8: SEQ ID NO: 200 (peptide)
peptide: Ac-HRQRS[Cha][NMeQ′]TLR[S5]IQR[S5][Phe(4-F)][2Nal]-NH2
modifications: staple 11-15; not fully specified; printed as HRQRS(Cha)(N-methylQ)TLRXaa3IQRXaa6(4-F-Ph)(2-Nal)
B9: SEQ ID NO: 186 (peptide)
peptide: Ac-HRQRS[NMeCha][NMeQ]TLR[S5]IQR[S5][Cha][2Nal]-NH2
modifications: staple 11-15; also: N-MeGln at 7: D or L (both stated)
B10: SEQ ID NO: 196 (peptide)
peptide: Ac-HRQRSLQTLR[S5]IQR[S5][Phe(4-Cl)][2Nal]-NH2
modifications: staple 11-15
SMILES: CC[C@H](C)[C@@H]1NC(=O)[C@@](C)(NC(=O)[C@H](CCCNC(=N)N)NC(=O)[C@H](CC(C)C)NC(=O)[C@@H](NC(=O)[C@H](CCC(N)=O)NC(=O)[C@H](CC(C)C)NC(=O)[C@H](CO)NC(=O)[C@H](CCCNC(=N)N)NC(=O)[C@H](CCC(N)=O)NC(=O)[C@H](CCCNC(=N)N)NC(=O)[C@H](Cc2c[nH]cn2)NC(C)=O)[C@@H](C)O)CCCC=CCCC[C@@](C)(C(=O)N[C@@H](Cc2ccc(Cl)cc2)C(=O)N[C@@H](Cc2ccc3ccccc3c2)C(N)=O)NC(=O)[C@H](CCCNC(=N)N)NC(=O)[C@H](CCC(N)=O)NC1=O
B11: SEQ ID NO: 217 (peptide)
peptide: Ac-[NMeC]RQRSLQTLR[S5]IQR[S5][Cha][2Nal]-NH2
modifications: staple 11-15
SMILES: CC[C@H](C)[C@@H]1NC(=O)[C@@](C)(NC(=O)[C@H](CCCNC(=N)N)NC(=O)[C@H](CC(C)C)NC(=O)[C@@H](NC(=O)[C@H](CCC(N)=O)NC(=O)[C@H](CC(C)C)NC(=O)[C@H](CO)NC(=O)[C@H](CCCNC(=N)N)NC(=O)[C@H](CCC(N)=O)NC(=O)[C@H](CCCNC(=N)N)NC(=O)[C@H](CS)N(C)C(C)=O)[C@@H](C)O)CCCC=CCCC[C@@](C)(C(=O)N[C@@H](CC2CCCCC2)C(=O)N[C@@H](Cc2ccc3ccccc3c2)C(N)=O)NC(=O)[C@H](CCCNC(=N)N)NC(=O)[C@H](CCC(N)=O)NC1=O
B12: SEQ ID NO: 192 (peptide)
peptide: Ac-HRQRSLQTLR[S5]IQR[S5][Tle][2Nal]-NH2
modifications: staple 11-15
SMILES: CC[C@H](C)[C@@H]1NC(=O)[C@@](C)(NC(=O)[C@H](CCCNC(=N)N)NC(=O)[C@H](CC(C)C)NC(=O)[C@@H](NC(=O)[C@H](CCC(N)=O)NC(=O)[C@H](CC(C)C)NC(=O)[C@H](CO)NC(=O)[C@H](CCCNC(=N)N)NC(=O)[C@H](CCC(N)=O)NC(=O)[C@H](CCCNC(=N)N)NC(=O)[C@H](Cc2c[nH]cn2)NC(C)=O)[C@@H](C)O)CCCC=CCCC[C@@](C)(C(=O)N[C@H](C(=O)N[C@@H](Cc2ccc3ccccc3c2)C(N)=O)C(C)(C)C)NC(=O)[C@H](CCCNC(=N)N)NC(=O)[C@H](CCC(N)=O)NC1=O
B13: SEQ ID NO: 142 (peptide)
peptide: {5‑phenylvaleric acid}-L[NMeQ]TLR[S5]IQR[S5][Cba][2Nal]-NH2
modifications: staple 6-10; not fully specified
B14: SEQ ID NO: 77 (peptide)
peptide: Ac-LQTLR[S5]IQR[S5]A[2Nal]-NH2
modifications: staple 6-10
B15: SEQ ID NO: 170 (peptide)
peptide: Ac-HRQRSLQTL[hArg][S5]IQR[S5][Cba][2Nal]-NH2
modifications: staple 11-15
B16: SEQ ID NO: 141 (peptide)
peptide: {4‑(trifluoromethyl)benzoic acid}-L[NMeQ]TLR[S5]IQR[S5][Cba][2Nal]-NH2
modifications: staple 6-10; not fully specified
notes: the footnote mark in T0158 is printed 19, seemingly for 10
B17: SEQ ID NO: 171 (peptide)
peptide: Ac-HRQRSLQTLR[S5]IQ[hArg][S5][Cba][2Nal]-NH2
modifications: staple 11-15

Usually IC50 stands for the point on the concentration scale where inhibition reaches its midpoint. Low values mean greater potency, high ones weaker potency.

The target of this assay is T1, β-catenin (UniProt P35222 1-781, limits assumed).
T1 construct: also called beta-catenin
T1 sequence (looked up): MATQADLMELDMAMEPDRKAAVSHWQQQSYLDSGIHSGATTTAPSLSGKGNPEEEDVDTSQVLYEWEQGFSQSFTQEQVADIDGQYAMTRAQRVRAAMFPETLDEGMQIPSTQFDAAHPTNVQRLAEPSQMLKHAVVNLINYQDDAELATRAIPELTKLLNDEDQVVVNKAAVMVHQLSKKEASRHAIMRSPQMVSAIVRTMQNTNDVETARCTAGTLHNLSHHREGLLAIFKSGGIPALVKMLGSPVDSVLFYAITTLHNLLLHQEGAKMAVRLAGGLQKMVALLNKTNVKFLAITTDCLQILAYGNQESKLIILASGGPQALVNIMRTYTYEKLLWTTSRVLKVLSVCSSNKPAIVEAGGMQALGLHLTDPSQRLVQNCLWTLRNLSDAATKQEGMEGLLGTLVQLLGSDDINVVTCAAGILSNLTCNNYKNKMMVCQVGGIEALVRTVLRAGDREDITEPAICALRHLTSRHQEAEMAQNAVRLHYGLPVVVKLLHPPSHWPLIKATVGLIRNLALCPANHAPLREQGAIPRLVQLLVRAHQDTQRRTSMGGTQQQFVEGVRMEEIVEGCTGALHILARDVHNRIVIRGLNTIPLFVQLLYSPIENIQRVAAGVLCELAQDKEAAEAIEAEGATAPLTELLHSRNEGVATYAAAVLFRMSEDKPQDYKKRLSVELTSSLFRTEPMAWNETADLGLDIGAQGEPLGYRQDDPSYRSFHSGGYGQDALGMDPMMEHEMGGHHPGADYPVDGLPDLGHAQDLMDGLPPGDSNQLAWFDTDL
Kind of assay: ALPHA Screen (BCL9/β-catenin).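 Further: bead proximity readout with the polypeptide linked to donor beads and β-catenin fixed on acceptor beads, their binding bringing the beads close enough to emit signal.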
Excerpt: In this assay, a polypeptide is conjugated to a donor bead and its target protein (i.e., β-catenin) is attached to an acceptor bead. When the two beads are in proximity due to the binding of the polypeptide to the target protein, a signal is generated and the binding affinity of the polypeptide can be quantitatively calculated. The assay may be conducted in the presence or absence of an unconjugated control polypeptide.
Molecule B1 showed an IC50 of 27900 nM.
For the molecule B2, it took 223 nM to reach half-maximal inhibition (IC50).
Consider B3, for which half-maximal inhibition (IC50) was put at 305 nM.
Molecule B4 returned an IC50 of 398 nM.
The molecule B5 gave an IC50 of 294 nM.
Next, B6: 155 nM; B7: 312 nM; B8: 324 nM.
For B9 the value was 232 nM.
In the case of B10, the IC50 turned out to be 63 nM.
For the molecule B11, half-maximal inhibition (IC50) required 384 nM.
As for B12, the midpoint of inhibition, the IC50, lay at 329 nM.
Regarding B13, the half-inhibitory concentration (IC50) stood at 6070 nM.
Molecule B14 had an IC50 of 7680 nM.
Consider B15, for which the half-maximal inhibitory concentration (IC50) is 430 nM.
B16 returned an IC50 of 2250 nM.
Molecule B17 displayed an IC50 of 340 nM.
